# From article PMC7351598
# Where two headings read alike, the source gives them in different places.
# What was measured:
# Test in all cases: MST
# [1] = target: Cas9-gRNA prebound to AcrIIA2b.3 (Streptococcus pyogenes | not stated) (UniProt Q99ZW2)
# [2] = target: 6xHis-MBP-SpyCas9(H840A) (Streptococcus pyogenes) (UniProt Q99ZW2)
# [3] = target: 6xHis-MBP-deadSpyCas9 (Streptococcus pyogenes) (UniProt Q99ZW2)
# [4] = target: 6xHis-MBP-SpyCas9(D10A) (Streptococcus pyogenes) (UniProt Q99ZW2)
# [5] = target: 6xHis-MBP-SpyCas9 (Streptococcus pyogenes) (UniProt Q99ZW2)
# [6] = target: 6xHis-MBP-SpyCas9 (Streptococcus pyogenes) (UniProt Q99ZW2); remark: listed apart in the source
Kd [1],Kd [2],Kd [3],Kd [4],Kd [5],Kd [6],Substance
24 nM,2000 nM,905 nM,38 nM,23 nM,31 nM,AcrIIA1 (natural protein)
–,–,–,–,20 nM,–,AcrIIA2b.3 (natural protein)
